Assay results from patent US20100056457.

How the values were obtained:
[1] = system: pE2S six-finger protein (synthetic (Zif268/Sp1C framework)); assay: EMSA
[2] = system: pE2S six-finger protein (synthetic (Zif268/Sp1C framework)); assay: footprint; details: DNase I footprint, 10 uM Zn, 4 C, mean of three; protected exactly the 18 bp site
[3] = system: gg1 six-finger protein (synthetic); details: CITED ref 40 (Graslund 2005); cited from earlier work

CGGGGGGCTCCCCTGGTT (double strand) [E2S target site]
Kd [1]: 3.25 nM

ERBB-2 promoter fragment, 267 bp (-209 to +3)
Kd [2]: 14 nM

GTCAAGGCAAGGCTGGCC (double strand) [gg1 target site]
Kd [3]: 0.7 nM
